Results: patent publication US20260217835A1 (published 2026)

T1: human FcγRIIa, allotype 167R (human, UniProt P12318 34-217, limits assumed)
T1 construct: also called hFcgRIIa_167R
T1 sequence (looked up): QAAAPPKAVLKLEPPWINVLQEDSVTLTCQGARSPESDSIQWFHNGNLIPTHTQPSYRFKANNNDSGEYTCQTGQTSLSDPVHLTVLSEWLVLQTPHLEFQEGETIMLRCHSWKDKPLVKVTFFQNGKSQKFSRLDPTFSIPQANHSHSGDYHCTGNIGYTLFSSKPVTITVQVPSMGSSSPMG


Assays:
Experiment in all cases: SPR, Biacore T200, pH 7.4; antibody captured on Protein L, FcγR as analyte
human FcγRIa = biological target: T2, human FcγRIa (human, UniProt P12314 16-292, limits assumed)
T2 construct: also called hFcgRIa

[1] = biological target: T3, human FcγRIIIa, allotype 176V (human, UniProt P08637 17-208, limits assumed)
T3 construct: also called hFcgRIIIa_176V

[2] = biological target: T1, human FcγRIIa, allotype 167R
[3] = biological target: T4, human FcγRIIIa, allotype 176F (human, UniProt P08637 17-208, limits assumed)
T4 construct: also called hFcgRIIIa_176F

| Binder | binding result (human FcγRIa) | binding result [1] | binding result [2] | binding result [3] |
| --- | --- | --- | --- | --- |
| Sample No. 87 (antibody, human IgG1, kappa, also called T366W/L368A/Y407V) heavy: QVQLQESGPGLVRPSQTLSLTCTVSGYSITSDHAWSWVRQPPGRGLEWIGYISYSGITTYNPSLKSRVTMLRDTSKNQFSLRLSSVTAADTAVYYCARSLARTTAMDYWGQGSLVTVSSASTKGPSVFPLAPSSKSTSGGTAALGCLVKDYFPEPVTVSWNSGALTSGVHTFPAVLQSSGLYSLSSVVTVPSSSLGTQTYICNVNHKPSNTKVDKRVEPKSCDKTHTCPPCPAPELLGGPSVFLFPPKPKDTLMISRTPEVTCVVVDVSHEDPEVKFNWYVDGVEVHNAKTKPREEQYNSTYRVVSVLTVLHQDWLNGKEYKCKVSNKALPAPIEKTISKAKGQPREPQVYTLPPSREEMTKNQVSLWCAVKGFYPSDIAVEWESNGQPENNYKTTPPVLDSDGSFFLVSKLTVDKSRWQQGNVFSCSVMHEALHNHYTQKSLSLSP light: not shown | binds | binds | binds | binds |
| Sample No. 119 (antibody, human IgG1, kappa, also called E345R/K360E/D399M/Y407A/K409V) heavy: QVQLQESGPGLVRPSQTLSLTCTVSGYSITSDHAWSWVRQPPGRGLEWIGYISYSGITTYNPSLKSRVTMLRDTSKNQFSLRLSSVTAADTAVYYCARSLARTTAMDYWGQGSLVTVSSASTKGPSVFPLAPSSKSTSGGTAALGCLVKDYFPEPVTVSWNSGALTSGVHTFPAVLQSSGLYSLSSVVTVPSSSLGTQTYICNVNHKPSNTKVDKRVEPKSCDKTHTCPPCPAPELLGGPSVFLFPPKPKDTLMISRTPEVTCVVVDVSHEDPEVKFNWYVDGVEVHNAKTKPREEQYNSTYRVVSVLTVLHQDWLNGKEYKCKVSNKALPAPIEKTISKAKGQPRRPQVYTLPPSREEMTENQVSLTCLVKGFYPSDIAVEWESNGQPENNYKTTPPVLMSDGSFFLASVLTVDKSRWQQGNVFSCSVMHEALHNHYTQKSLSLSP light: not shown | binds | binds | binds | binds |
| Sample No. 97 (antibody, human IgG1, kappa, also called E356K/D399K/K409E/K439E) heavy: QVQLQESGPGLVRPSQTLSLTCTVSGYSITSDHAWSWVRQPPGRGLEWIGYISYSGITTYNPSLKSRVTMLRDTSKNQFSLRLSSVTAADTAVYYCARSLARTTAMDYWGQGSLVTVSSASTKGPSVFPLAPSSKSTSGGTAALGCLVKDYFPEPVTVSWNSGALTSGVHTFPAVLQSSGLYSLSSVVTVPSSSLGTQTYICNVNHKPSNTKVDKRVEPKSCDKTHTCPPCPAPELLGGPSVFLFPPKPKDTLMISRTPEVTCVVVDVSHEDPEVKFNWYVDGVEVHNAKTKPREEQYNSTYRVVSVLTVLHQDWLNGKEYKCKVSNKALPAPIEKTISKAKGQPREPQVYTLPPSRKEMTKNQVSLTCLVKGFYPSDIAVEWESNGQPENNYKTTPPVLKSDGSFFLYSELTVDKSRWQQGNVFSCSVMHEALHNHYTQESLSLSP light: not shown | binds | binds | binds | binds |
| Sample No. 111 (antibody, human IgG1, kappa, also called K392D/D399K/K409D) heavy: QVQLQESGPGLVRPSQTLSLTCTVSGYSITSDHAWSWVRQPPGRGLEWIGYISYSGITTYNPSLKSRVTMLRDTSKNQFSLRLSSVTAADTAVYYCARSLARTTAMDYWGQGSLVTVSSASTKGPSVFPLAPSSKSTSGGTAALGCLVKDYFPEPVTVSWNSGALTSGVHTFPAVLQSSGLYSLSSVVTVPSSSLGTQTYICNVNHKPSNTKVDKRVEPKSCDKTHTCPPCPAPELLGGPSVFLFPPKPKDTLMISRTPEVTCVVVDVSHEDPEVKFNWYVDGVEVHNAKTKPREEQYNSTYRVVSVLTVLHQDWLNGKEYKCKVSNKALPAPIEKTISKAKGQPREPQVYTLPPSREEMTKNQVSLTCLVKGFYPSDIAVEWESNGQPENNYDTTPPVLKSDGSFFLYSDLTVDKSRWQQGNVFSCSVMHEALHNHYTQKSLSLSP light: not shown | binds | binds | binds | binds |

More lines, now with the values ahead:

| binding result (human FcγRIa) | binding result [1] | binding result [2] | binding result [3] | Binder |
| --- | --- | --- | --- | --- |
| binds | binds | binds | binds | Sample No. 116 (antibody, human IgG1, kappa, also called E345R/Q347R/K360D/T366V/D399M/Y407A/K409V) heavy: QVQLQESGPGLVRPSQTLSLTCTVSGYSITSDHAWSWVRQPPGRGLEWIGYISYSGITTYNPSLKSRVTMLRDTSKNQFSLRLSSVTAADTAVYYCARSLARTTAMDYWGQGSLVTVSSASTKGPSVFPLAPSSKSTSGGTAALGCLVKDYFPEPVTVSWNSGALTSGVHTFPAVLQSSGLYSLSSVVTVPSSSLGTQTYICNVNHKPSNTKVDKRVEPKSCDKTHTCPPCPAPELLGGPSVFLFPPKPKDTLMISRTPEVTCVVVDVSHEDPEVKFNWYVDGVEVHNAKTKPREEQYNSTYRVVSVLTVLHQDWLNGKEYKCKVSNKALPAPIEKTISKAKGQPRRPRVYTLPPSREEMTDNQVSLVCLVKGFYPSDIAVEWESNGQPENNYKTTPPVLMSDGSFFLASVLTVDKSRWQQGNVFSCSVMHEALHNHYTQKSLSLSP light: not shown |
| binds | binds | binds | binds | Sample No. 109 (antibody, human IgG1, kappa, also called E356K/K392D/D399K/K439E) heavy: QVQLQESGPGLVRPSQTLSLTCTVSGYSITSDHAWSWVRQPPGRGLEWIGYISYSGITTYNPSLKSRVTMLRDTSKNQFSLRLSSVTAADTAVYYCARSLARTTAMDYWGQGSLVTVSSASTKGPSVFPLAPSSKSTSGGTAALGCLVKDYFPEPVTVSWNSGALTSGVHTFPAVLQSSGLYSLSSVVTVPSSSLGTQTYICNVNHKPSNTKVDKRVEPKSCDKTHTCPPCPAPELLGGPSVFLFPPKPKDTLMISRTPEVTCVVVDVSHEDPEVKFNWYVDGVEVHNAKTKPREEQYNSTYRVVSVLTVLHQDWLNGKEYKCKVSNKALPAPIEKTISKAKGQPREPQVYTLPPSRKEMTKNQVSLTCLVKGFYPSDIAVEWESNGQPENNYDTTPPVLKSDGSFFLYSKLTVDKSRWQQGNVFSCSVMHEALHNHYTQESLSLSP light: not shown |
| binds | binds | binds | binds | Sample No. 100 (antibody, human IgG1, kappa, also called Q347E/S354Y/T366Y/Y407T) heavy: QVQLQESGPGLVRPSQTLSLTCTVSGYSITSDHAWSWVRQPPGRGLEWIGYISYSGITTYNPSLKSRVTMLRDTSKNQFSLRLSSVTAADTAVYYCARSLARTTAMDYWGQGSLVTVSSASTKGPSVFPLAPSSKSTSGGTAALGCLVKDYFPEPVTVSWNSGALTSGVHTFPAVLQSSGLYSLSSVVTVPSSSLGTQTYICNVNHKPSNTKVDKRVEPKSCDKTHTCPPCPAPELLGGPSVFLFPPKPKDTLMISRTPEVTCVVVDVSHEDPEVKFNWYVDGVEVHNAKTKPREEQYNSTYRVVSVLTVLHQDWLNGKEYKCKVSNKALPAPIEKTISKAKGQPREPEVYTLPPYREEMTKNQVSLYCLVKGFYPSDIAVEWESNGQPENNYKTTPPVLDSDGSFFLTSKLTVDKSRWQQGNVFSCSVMHEALHNHYTQKSLSLSP light: not shown |
| binds | binds | binds | binds | Sample No. 102 (antibody, human IgG1, kappa, also called K392L/T394W/F405A/Y407V) heavy: QVQLQESGPGLVRPSQTLSLTCTVSGYSITSDHAWSWVRQPPGRGLEWIGYISYSGITTYNPSLKSRVTMLRDTSKNQFSLRLSSVTAADTAVYYCARSLARTTAMDYWGQGSLVTVSSASTKGPSVFPLAPSSKSTSGGTAALGCLVKDYFPEPVTVSWNSGALTSGVHTFPAVLQSSGLYSLSSVVTVPSSSLGTQTYICNVNHKPSNTKVDKRVEPKSCDKTHTCPPCPAPELLGGPSVFLFPPKPKDTLMISRTPEVTCVVVDVSHEDPEVKFNWYVDGVEVHNAKTKPREEQYNSTYRVVSVLTVLHQDWLNGKEYKCKVSNKALPAPIEKTISKAKGQPREPQVYTLPPSREEMTKNQVSLTCLVKGFYPSDIAVEWESNGQPENNYLTWPPVLDSDGSFALVSKLTVDKSRWQQGNVFSCSVMHEALHNHYTQKSLSLSP light: not shown |
| binds | binds | binds | binds | Sample No. 112 (antibody, human IgG1, kappa, also called Y349C/E357C/K392D/D399K) heavy: QVQLQESGPGLVRPSQTLSLTCTVSGYSITSDHAWSWVRQPPGRGLEWIGYISYSGITTYNPSLKSRVTMLRDTSKNQFSLRLSSVTAADTAVYYCARSLARTTAMDYWGQGSLVTVSSASTKGPSVFPLAPSSKSTSGGTAALGCLVKDYFPEPVTVSWNSGALTSGVHTFPAVLQSSGLYSLSSVVTVPSSSLGTQTYICNVNHKPSNTKVDKRVEPKSCDKTHTCPPCPAPELLGGPSVFLFPPKPKDTLMISRTPEVTCVVVDVSHEDPEVKFNWYVDGVEVHNAKTKPREEQYNSTYRVVSVLTVLHQDWLNGKEYKCKVSNKALPAPIEKTISKAKGQPREPQVCTLPPSRECMTKNQVSLTCLVKGFYPSDIAVEWESNGQPENNYDTTPPVLKSDGSFFLYSKLTVDKSRWQQGNVFSCSVMHEALHNHYTQKSLSLSP light: not shown |
| binds | binds | binds | binds | Sample No. 92 (antibody, human IgG1, kappa, also called Q347R/K360E/D399V/F405T/K409W) heavy: QVQLQESGPGLVRPSQTLSLTCTVSGYSITSDHAWSWVRQPPGRGLEWIGYISYSGITTYNPSLKSRVTMLRDTSKNQFSLRLSSVTAADTAVYYCARSLARTTAMDYWGQGSLVTVSSASTKGPSVFPLAPSSKSTSGGTAALGCLVKDYFPEPVTVSWNSGALTSGVHTFPAVLQSSGLYSLSSVVTVPSSSLGTQTYICNVNHKPSNTKVDKRVEPKSCDKTHTCPPCPAPELLGGPSVFLFPPKPKDTLMISRTPEVTCVVVDVSHEDPEVKFNWYVDGVEVHNAKTKPREEQYNSTYRVVSVLTVLHQDWLNGKEYKCKVSNKALPAPIEKTISKAKGQPREPRVYTLPPSREEMTENQVSLTCLVKGFYPSDIAVEWESNGQPENNYKTTPPVLVSDGSFTLYSWLTVDKSRWQQGNVFSCSVMHEALHNHYTQKSLSLSP light: not shown |
